Kd data for 27 molecules are collected here from paper PMC10786891, “Massively parallel profiling of RNA-targeting CRISPR-Cas13d”.

B1: target 3 insA 3' of 10,insG 3' of 7 (mixed)
RNA 1: CACCCGUGCAAAAUUGCAGGGGUCUAAAACGACCUGAAUAUUUCAGAUCAAA
RNA 2: GGGAAUGGAUCCACAUCUACGAAUUCGUUUUUGAUCUGAAAUAAUUGCAGGUCUGCAGAUCGGAAGAGCACACGU
B2: target 3 complement block 4-6 (mixed)
RNA 1: CACCCGUGCAAAAUUGCAGGGGUCUAAAACGACCUGAAUAUUUCAGAUCAAA
RNA 2: GGGAAUGGAUCCACAUCUACGAAUUCGUUUUUGAUCUGAAAUAUUGUCGUCUGCAGAUCGGAAGAGCACACGU
B3: target 3 insU 3' of 5,insG 3' of 1 (mixed)
RNA 1: CACCCGUGCAAAAUUGCAGGGGUCUAAAACGACCUGAAUAUUUCAGAUCAAA
RNA 2: GGGAAUGGAUCCACAUCUACGAAUUCGUUUUUGAUCUGAAAUAUUCAUGGUCGUGCAGAUCGGAAGAGCACACGU
B4: target 3 insC 3' of 5,insU 3' of 5 (mixed)
RNA 1: CACCCGUGCAAAAUUGCAGGGGUCUAAAACGACCUGAAUAUUUCAGAUCAAA
RNA 2: GGGAAUGGAUCCACAUCUACGAAUUCGUUUUUGAUCUGAAAUAUUCACUGGUCUGCAGAUCGGAAGAGCACACGU
B5: target 3 insU 3' of 5,insC 3' of 2 (mixed)
RNA 1: CACCCGUGCAAAAUUGCAGGGGUCUAAAACGACCUGAAUAUUUCAGAUCAAA
RNA 2: GGGAAUGGAUCCACAUCUACGAAUUCGUUUUUGAUCUGAAAUAUUCAUGGUCCUGCAGAUCGGAAGAGCACACGU
B6: target 3 insU 3' of 5,insU 3' of 1 (mixed)
RNA 1: CACCCGUGCAAAAUUGCAGGGGUCUAAAACGACCUGAAUAUUUCAGAUCAAA
RNA 2: GGGAAUGGAUCCACAUCUACGAAUUCGUUUUUGAUCUGAAAUAUUCAUGGUCUUGCAGAUCGGAAGAGCACACGU
B7: target 3 insC 3' of 12,insG 3' of 2 (mixed)
RNA 1: CACCCGUGCAAAAUUGCAGGGGUCUAAAACGACCUGAAUAUUUCAGAUCAAA
RNA 2: GGGAAUGGAUCCACAUCUACGAAUUCGUUUUUGAUCUGAACAUAUUCAGGUGCUGCAGAUCGGAAGAGCACACGU
B8: target 3 G4A,A5G (mixed)
RNA 1: CACCCGUGCAAAAUUGCAGGGGUCUAAAACGACCUGAAUAUUUCAGAUCAAA
RNA 2: GGGAAUGGAUCCACAUCUACGAAUUCGUUUUUGAUCUGAAAUAUUCGAGUCUGCAGAUCGGAAGAGCACACGU
B9: target 3 insA 3' of 22,insG 3' of 7 (mixed)
RNA 1: CACCCGUGCAAAAUUGCAGGGGUCUAAAACGACCUGAAUAUUUCAGAUCAAA
RNA 2: GGGAAUGGAUCCACAUCUACGAAUUCGUUUAUUGAUCUGAAAUAUUGCAGGUCUGCAGAUCGGAAGAGCACACGU
B10: target 3 A5G,A9G (mixed)
RNA 1: CACCCGUGCAAAAUUGCAGGGGUCUAAAACGACCUGAAUAUUUCAGAUCAAA
RNA 2: GGGAAUGGAUCCACAUCUACGAAUUCGUUUUUGAUCUGAAAUGUUCGGGUCUGCAGAUCGGAAGAGCACACGU
B11: target 3 U2G,G4C (mixed)
RNA 1: CACCCGUGCAAAAUUGCAGGGGUCUAAAACGACCUGAAUAUUUCAGAUCAAA
RNA 2: GGGAAUGGAUCCACAUCUACGAAUUCGUUUUUGAUCUGAAAUAUUCACGGCUGCAGAUCGGAAGAGCACACGU
B12: target 3 A5C,U8G (mixed)
RNA 1: CACCCGUGCAAAAUUGCAGGGGUCUAAAACGACCUGAAUAUUUCAGAUCAAA
RNA 2: GGGAAUGGAUCCACAUCUACGAAUUCGUUUUUGAUCUGAAAUAGUCCGGUCUGCAGAUCGGAAGAGCACACGU
B13: target 3 G3C,A18G (mixed)
RNA 1: CACCCGUGCAAAAUUGCAGGGGUCUAAAACGACCUGAAUAUUUCAGAUCAAA
RNA 2: GGGAAUGGAUCCACAUCUACGAAUUCGUUUUUGGUCUGAAAUAUUCAGCUCUGCAGAUCGGAAGAGCACACGU
B14: target 3 G4C,A5G (mixed)
RNA 1: CACCCGUGCAAAAUUGCAGGGGUCUAAAACGACCUGAAUAUUUCAGAUCAAA
RNA 2: GGGAAUGGAUCCACAUCUACGAAUUCGUUUUUGAUCUGAAAUAUUCGCGUCUGCAGAUCGGAAGAGCACACGU
B15: target 3 insU 3' of 5,insA 3' of 1 (mixed)
RNA 1: CACCCGUGCAAAAUUGCAGGGGUCUAAAACGACCUGAAUAUUUCAGAUCAAA
RNA 2: GGGAAUGGAUCCACAUCUACGAAUUCGUUUUUGAUCUGAAAUAUUCAUGGUCAUGCAGAUCGGAAGAGCACACGU
B16: target 3 insC 3' of 11,insC 3' of 3 (mixed)
RNA 1: CACCCGUGCAAAAUUGCAGGGGUCUAAAACGACCUGAAUAUUUCAGAUCAAA
RNA 2: GGGAAUGGAUCCACAUCUACGAAUUCGUUUUUGAUCUGAAACUAUUCAGGCUCUGCAGAUCGGAAGAGCACACGU
B17: target 3 insG 3' of 9,insG 3' of 9 (mixed)
RNA 1: CACCCGUGCAAAAUUGCAGGGGUCUAAAACGACCUGAAUAUUUCAGAUCAAA
RNA 2: GGGAAUGGAUCCACAUCUACGAAUUCGUUUUUGAUCUGAAAUAGGUUCAGGUCUGCAGAUCGGAAGAGCACACGU
B18: target 3 insU 3' of 22,insC 3' of 3 (mixed)
RNA 1: CACCCGUGCAAAAUUGCAGGGGUCUAAAACGACCUGAAUAUUUCAGAUCAAA
RNA 2: GGGAAUGGAUCCACAUCUACGAAUUCGUUUUUUGAUCUGAAAUAUUCAGGCUCUGCAGAUCGGAAGAGCACACGU
B19: target 3 U2A,A5C (mixed)
RNA 1: CACCCGUGCAAAAUUGCAGGGGUCUAAAACGACCUGAAUAUUUCAGAUCAAA
RNA 2: GGGAAUGGAUCCACAUCUACGAAUUCGUUUUUGAUCUGAAAUAUUCCGGACUGCAGAUCGGAAGAGCACACGU
B20: target 3 insA 3' of 4 (mixed)
RNA 1: CACCCGUGCAAAAUUGCAGGGGUCUAAAACGACCUGAAUAUUUCAGAUCAAA
RNA 2: GGGAAUGGAUCCACAUCUACGAAUUCGUUUUUGAUCUGAAAUAUUCAGAGUCUGCAGAUCGGAAGAGCACACGU
B21: target 3 U2A,A5G (mixed)
RNA 1: CACCCGUGCAAAAUUGCAGGGGUCUAAAACGACCUGAAUAUUUCAGAUCAAA
RNA 2: GGGAAUGGAUCCACAUCUACGAAUUCGUUUUUGAUCUGAAAUAUUCGGGACUGCAGAUCGGAAGAGCACACGU
B22: target 3 insC 3' of 22,insU 3' of 5 (mixed)
RNA 1: CACCCGUGCAAAAUUGCAGGGGUCUAAAACGACCUGAAUAUUUCAGAUCAAA
RNA 2: GGGAAUGGAUCCACAUCUACGAAUUCGUUUCUUGAUCUGAAAUAUUCAUGGUCUGCAGAUCGGAAGAGCACACGU
B23: target 3 U2G,A11G (mixed)
RNA 1: CACCCGUGCAAAAUUGCAGGGGUCUAAAACGACCUGAAUAUUUCAGAUCAAA
RNA 2: GGGAAUGGAUCCACAUCUACGAAUUCGUUUUUGAUCUGAAGUAUUCAGGGCUGCAGAUCGGAAGAGCACACGU
B24: target 3 insG 3' of 2,insU 3' of 1 (mixed)
RNA 1: CACCCGUGCAAAAUUGCAGGGGUCUAAAACGACCUGAAUAUUUCAGAUCAAA
RNA 2: GGGAAUGGAUCCACAUCUACGAAUUCGUUUUUGAUCUGAAAUAUUCAGGUGCUUGCAGAUCGGAAGAGCACACGU
B25: target 3 insU 3' of 9,insG 3' of 8 (mixed)
RNA 1: CACCCGUGCAAAAUUGCAGGGGUCUAAAACGACCUGAAUAUUUCAGAUCAAA
RNA 2: GGGAAUGGAUCCACAUCUACGAAUUCGUUUUUGAUCUGAAAUAUUGUCAGGUCUGCAGAUCGGAAGAGCACACGU
B26: target 1 U11G,G13C (mixed)
RNA 1: CACCCGUGCAAAAAUGCAGGGGUCUAAAACUGAGCGGAUAACCUCUCUAUGG
RNA 2: GGGAAUGGAUCCACAUCUACGAAUUCGUACCAUAGAGACGGUAUCCGCUCACCGAGAUCGGAAGAGCACACGU
B27: target 1 C7U,U10G (mixed)
RNA 1: CACCCGUGCAAAAAUGCAGGGGUCUAAAACUGAGCGGAUAACCUCUCUAUGG
RNA 2: GGGAAUGGAUCCACAUCUACGAAUUCGUACCAUAGAGAGGUGAUUCGCUCACCGAGAUCGGAAGAGCACACGU

This data set deals with T1, EsCas13d, nuclease-dead (Eubacterium siraeum, UniProt B0MS50, R295A;H300A;R849A;H854A).
T1 sequence: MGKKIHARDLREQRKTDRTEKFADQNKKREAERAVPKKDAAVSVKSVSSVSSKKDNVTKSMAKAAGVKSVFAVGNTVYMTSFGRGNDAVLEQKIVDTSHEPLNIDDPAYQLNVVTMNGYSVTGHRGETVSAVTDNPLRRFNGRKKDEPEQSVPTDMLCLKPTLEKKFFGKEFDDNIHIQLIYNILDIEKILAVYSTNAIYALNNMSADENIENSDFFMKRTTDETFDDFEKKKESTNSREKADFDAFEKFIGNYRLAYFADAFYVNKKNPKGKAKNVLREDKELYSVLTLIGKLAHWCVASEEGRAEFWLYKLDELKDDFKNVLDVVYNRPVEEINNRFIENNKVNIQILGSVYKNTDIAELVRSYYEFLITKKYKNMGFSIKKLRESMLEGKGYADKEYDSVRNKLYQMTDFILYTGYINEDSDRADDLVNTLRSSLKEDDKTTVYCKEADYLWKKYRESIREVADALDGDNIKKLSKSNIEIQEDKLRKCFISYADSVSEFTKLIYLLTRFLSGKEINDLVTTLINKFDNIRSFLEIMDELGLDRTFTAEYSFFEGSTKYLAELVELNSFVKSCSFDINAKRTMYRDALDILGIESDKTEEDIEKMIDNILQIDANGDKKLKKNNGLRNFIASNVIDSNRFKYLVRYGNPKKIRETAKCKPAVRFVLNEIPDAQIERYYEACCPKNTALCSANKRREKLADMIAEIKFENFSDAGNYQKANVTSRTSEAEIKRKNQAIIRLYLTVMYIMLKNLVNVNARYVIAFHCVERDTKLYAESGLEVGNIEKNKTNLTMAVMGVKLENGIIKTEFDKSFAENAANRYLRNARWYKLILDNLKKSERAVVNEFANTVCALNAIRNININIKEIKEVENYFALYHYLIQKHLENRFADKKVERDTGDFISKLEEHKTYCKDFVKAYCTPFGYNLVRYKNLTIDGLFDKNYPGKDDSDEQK
Nature of the data set: crRNA (strand 1, pre-loaded); Mg2+; 40 mM Tris-HCl pH 7.5, 150 mM NaCl, 6 mM MgCl2, 1 mM DTT, 0.1% Tween-20, 0.2 mg/ml BSA; 25 C; 10 min per concentration, then washed. As to conditions: tags: His6-TwinStrep-SUMO cleaved; N-terminal SNAP kept (SNAP-Surface 488); label: 3' end held by stalled T7 RNA polymerase.
In turn, B1 returned a dissociation constant (Kd) of 73.5 ± 9.5 nM.

With B2, binding was characterised by a dissociation constant (Kd) of 23.7 ± 2.45 nM.

The molecule B3 came in with a Kd of 27 ± 4.5 nM.

Molecule B4 showed a dissociation constant (Kd) of 5.23 ± 0.375 nM.

On to B5, for which the dissociation constant Kd is 40.5 ± 6 nM.

For B6, binding was characterised by a dissociation constant (Kd) of 31 ± 10 nM.

B7 gave a Kd of 94 ± 39.5 nM.

On to B8, for which binding was characterised by a dissociation constant (Kd) of 19.5 ± 1.7 nM.

With B9, the affinity, expressed as Kd, was 96 ± 32.5 nM.

B10: the Kd was 73 ± 14 nM.

In the case of B11, the dissociation constant Kd worked out at 3.65 ± 0.55 nM.

With B12, the Kd was 74 ± 12 nM.

In the case of B13, the dissociation constant (Kd) was 38.7 ± 6.25 nM.

B14 yielded a Kd of 14.7 ± 1.1 nM. Compared with the last molecule, the Kd is about 2.6-fold lower.

B15 displayed a Kd of 36.5 ± 10.5 nM.

The molecule B16 gave a dissociation constant Kd of 50 ± 6 nM.

For the molecule B17, the Kd was determined as 102 ± 21 nM.

In turn, B18 displayed a Kd of 12.2 ± 1.35 nM.

B19 displayed a Kd of 47.6 ± 10.6 nM.

In turn, B20 yielded a Kd of 65.5 ± 15 nM.

On to B21, for which binding was characterised by a dissociation constant (Kd) of 3.12 ± 0.355 nM.

Take B22: the Kd was found to be 12.3 ± 1.6 nM. Against the preceding molecule, the Kd is about 3.9-fold higher.

With B23, the affinity, expressed as Kd, was 62.5 ± 12 nM.

In turn, B24 had a Kd of 67.5 ± 9 nM.

For B25, binding was characterised by a dissociation constant (Kd) of 82 ± 19 nM.

B26 registered a dissociation constant Kd of around 70 nM.

On to B27, for which the Kd worked out at 11.2 ± 0.5 nM.
